{
  "source": "patent US20250346904A1",
  "about": "“CCR5 and CD4 siRNA-TARGETED PHOSPHOLIPID NANOSOMES THERAPEUTICS FOR TREATMENT OF HIV-1 AND OTHER DISEASES” (priority 2024, published 2025)",
  "molecules": {"B1": {"name": "RANTES: CCL5, a CC chemokine with a molecular weight of 7,900, natural ligand of CCR5; unencapsulated in Table 13 (protein, UniProt P13501 24-91, looked up)", "C-C motif chemokine 5": "SPYSSDTTPCCFAYIARPLPRAHIKEYFYTSGKCSNPAVVFVTRKNRQVCANPEKKWVREYINSLEMS", "modifications": "ends and bridges not checked"}},
  "key": {"[1]": {"system": "HIV-1RF virus (NIH ARP Cat #2804, dual-tropic)", "experiment": "Knockdown by BFU assay on P4/R5 cells, HIV-1RF, log dilutions (RNA-I-47)", "assay_type": "cell-based", "details": "Human immunodeficiency virus 1, P4/R5, each drug as part of the Raltegravir + Efavirenz cocktail, read-out: Inhibitory Dose 50 (ID50) of the cocktail", "method": "MAGI P4/R5 cells carry the β-galactosidase gene under control of the HIV LTRs (Long Terminal Repeats). […] Briefly, 96 well plates of MAGI P4/R5 cells were infected with HIV-1 and fixed 2-3 days post infection with a fixative containing 1% formaldehyde and 0.2% glutaraldehyde. Fixed cells were washed with PBS (Phosphate Buffered Saline) and stained for β-galactosidase activity using X-gal at 1 mg/mL in PBS with 5 mM potassium ferricyanide and 5 mM potassium ferrocyanide as per published procedures. The cells were usually stained 3 hours to overnight, the number of blue foci counted under the microscope and reported as Blue Focus-forming Units (BFUs).\nIn this study (RNA-I-47), 8 siRNA nanosomal formulations and 2 controls were evaluated for HIV-1 inhibition on P4/R5 cells using the BFU assay. The test formulations were the same 3 CD4_siRNAs, 3 CCR5_siRNAs, RANTES protein alone and RANTES protein co-encapsulated with a CCR5_siRNA in phospholipid nanosomes, tested previously in RNA-I-50b and RNA-I-51. The HIV-1 virus used was NIH ARP Cat #2804, a member of a panel HIV-1RF viruses and is dual-tropic with the ability to infect both CCR5 and CXCR4 receptor expressing cells.\nThis study was similar to the previous studies with a few differences. […]"}, "HIV-1 RF, NIH Cat #2804": {"system": "HIV-1 RF, NIH Cat #2804", "experiment": "Knockdown by BFU assay, HIV-1 RF, with and without lipofectamine (RNA-I-61)", "assay_type": "cell-based", "details": "Naked (unencapsulated), Presence of Lipofectamine", "method": "A knockdown study (RNA-I-61) of the 8 nanoencapsulated and the corresponding unencapsulated (naked) siRNA preparations along with two controls described in the previous experiments was performed using freshly reconstituted materials with HIV-1 RF, NIH Cat #2804, diluted to contain ˜100 Blue Focus forming Units (BFUs) per dose of inoculum. […] The objective of this experiment was to test a range of concentrations of the inhibitors to determine the ID50 for each preparation based on the siRNA content. Since the nanosomal materials were freshly reconstituted, they were recharacterized.\nThe reconstituted samples as well as the naked siRNA preparations were tested for virus infection inhibitory activity. The inhibition of infectivity was measured by counting the number of blue foci due to the induced B-galactosidase activity in the host MAGI P4/R5 cells by the infecting HIV. […] The number of BFUs for each treatment at various dilutions were used to calculate the % inhibition from the corresponding dilution for the Negative_siRNA samples. The inhibitor activity was also quantified by measuring the p24 antigen concentration in each of the wells.\nInfectivity Assay by BFUs: The percent inhibitions obtained with various Nanosomal_siRNA formulations versus Negative_siRNA formulations in the presence of lipofectamine are listed in Table 12.\n50% Inhibitory Dose (ID50) Values: The data from RNA quantification using gel analysis and the infectivity results were used to plot dose response curves and calculate the ID50 (a.k.a. Inhibitory Concentration that results in 50% inhibition, [IC50]) values."}},
  "data": [
    {"molecule": "O=C1Nc2ccc(Cl)cc2[C@@](C#CC2CC2)(C(F)(F)F)O1", "note": "[Efavirenz]", "values": [
      {"measurement": "IC50", "setting": "[1]", "result": 0.16, "unit": "nM"}
    ]},
    {"molecule": "B1", "values": [
      {"measurement": "Inhibition of BFUs by Naked_siRNA vs Negative_siRNA", "setting": "HIV-1 RF, NIH Cat #2804; treatment dilution 1", "result": 0, "unit": "%"},
      {"measurement": "Inhibition of BFUs by Naked_siRNA vs Negative_siRNA", "setting": "HIV-1 RF, NIH Cat #2804; treatment dilution 5", "result": 34, "unit": "%"},
      {"measurement": "Inhibition of BFUs by Naked_siRNA vs Negative_siRNA", "setting": "HIV-1 RF, NIH Cat #2804; treatment dilution 15", "result": 18, "unit": "%"},
      {"measurement": "Inhibition of BFUs by Naked_siRNA vs Negative_siRNA", "setting": "HIV-1 RF, NIH Cat #2804; treatment dilution 45", "result": 0, "unit": "%"},
      {"measurement": "Inhibition of BFUs by Naked_siRNA vs Negative_siRNA", "setting": "HIV-1 RF, NIH Cat #2804; treatment dilution 135", "result": 0, "unit": "%"}
    ]}
  ]
}
